Laboratory results reported in patent publication US9360486B2, “Allergen fragments” (Biomay AG, priority 2007, dated 2016).
Entries after “also recorded” stand apart in the source; their conditions may differ.

Columns and labels:
[1] = test system: Amb a 1-specific TCL and TCC; assay: Proliferation of Amb a 1-specific TCL and TCC with allergens and chains; assay type: cell-based, human; conditions: PBMC, TCL and TCC; different concentrations
Method: Peripheral blood mononuclear cells (PBMC) were isolated from heparinized blood of allergic patients by Ficoll density gradient centrifugation. To generate allergen-specific T cell lines (TCL) and T cell clones (TCC), 1.5×10^6 PBMC were stimulated with optimal doses of ragweed or mugwort extract (4 μg/ml) or rAmb a 1.3 (10 μg/ml) in 24-well flat-bottomed culture plates (Costar, USA). After 5 days human rIL-2 (10 U/ml, Boehringer, Mannheim, Germany) were added and cultures were continued for additional 7 days. Then, T cell blasts were isolated by density centrifugation. The majority of T cell blasts was further expanded with IL-2 and irradiated PBMC. A small number of T cell blasts were used to establish monoclonal T cell cultures by limiting dilution: 0.3 T cells/well were seeded into 96 well round bottom plates (Nunclone) in the presence of 2×10^5 irradiated (60 Gy) PBMC, 0.25% v/v PHA (Gibco, USA) and rIL-2 (4 U/well) in the medium mentioned above. After 14-21 days, growing microcultures were expanded at weekly intervals with irradiated PBMC and rIL-2. The specificity of TCC was assessed in proliferation assays using irradiated allogeneic or HLA-matched PBMC or irradiated EBV-transformed allogeneic B-cells and 5 μg/ml Amb a 1.3. After 48 hours, cellular uptake of tritiated (^3H)-thymidine was performed to measure proliferation in counts per minute (cpm). When the stimulation index (SI; ratio between cpm obtained in cultures containing TCC plus autologous APC plus antigen, and cpm obtained in cultures containing TCC and APC alone) was >10, responses were considered as positive. Allergen-specific TCC were expanded by alternating turns of stimulation with autologous irradiated APC and allergen or with allogeneic feeder cells and rIL-2.
Proliferation and cytokine responses were determined.
When compared with the results of the T cell epitope recognition in Table 3, 45/46 patients (98%) would recognize one or more epitopes in the Amb a 1 alpha-chain. […]

[2] = test system: IgE of sera from ragweed pollen allergic patients; assay: SDS-PAGE IgE immunoblot with patients' sera; assay type: binding, human; conditions: standard procedure for SDS-PAGE/immunoblotting
Method: Membrane strips were incubated with sera from ragweed pollen allergic patients (lanes 1-29) or with serum from a non-allergic donor (lane C). Bound IgE was detected with ^125I-labeled goat anti-human IgE. Ragweed pollen-sensitized patients were recruited in Austria (lanes 1-13) or in Italy (lanes 14-29).
The proteins were analyzed via SDS-PAGE using 15% acrylamide gels and 0.1% Coomassie staining with a molecular weight standard RPN 756 (GE Healthcare Life Sciences). Sera from allergic patients were tested for positive IgE-reactivity. rAmb a 1 and rArt v 6 were separated on 15% (w/w) polyacrylamide gels and electroblotted onto a PVDF membrane. After blocking the non-specific protein binding sites with Blocking buffer (per L: 7.5 g Na2HPO4, 1 g NaH2PO4, 5 g BSA and 5 mL Tween 20), the membrane was incubated with patients' sera (diluted 1:10 in Blocking buffer) for more than 6 hours at room temperature. The membrane was washed for at least 30 minutes with Blocking buffer before it was incubated with radiolabeled [^125 I]-anti human IgE (RAST, 5 µCi, MedPro) diluted in Blocking buffer (1:40) overnight at room temperature. After a second 30-minute wash, the membrane was placed onto an imaging plate. The screen was exposed for at least 24 hours and developed using a PhosphoImager Bas-1800 II scanner for detection and the instrument's supporting software (Fujifilm).
nAmb a 1 undergoes spontaneously proteolysis during purification and it is cleaved into two chains, alpha and beta chain, respectively.

[3] = test system: IgE of sera from ragweed pollen allergic patients; assay: IgE dot-blot / non-denaturing IgE binding of recombinant Amb a 1.3; design: species or system human; conditions: sera from 17 ragweed pollen allergic patients
Excerpt: E. coli-produced rAmb a 1.3 was purified as described above and dotted on nitrocellulose membranes.
Thus, another approach for producing recombinant reagents with full IgE-binding activity was pursued, as described in section 4. Despite its low IgE-binding activity, rAmb a 1.3 was successfully used in vitro for T cell epitope mapping and proliferation assays, as correct folding is not essential for T cell recognition (see example 2).

[4] = test system: Amb a 1-specific TCL and TCC; assay: Cytokine production in TCL and TCC (ELISA of supernatants); assay type: cell-based, human
Method: T cells were washed and incubated with irradiated autologous APC in the presence of the stimulant (5 μg/ml) for 48 hours. Cytokine levels in the resulting supernatants were measured in ELISA using matched antibody pairs (Endogen, USA) (sensitivity limits: IL-4: 9 pg/ml, IFN-γ: 9 pg/ml). Cultures containing TCC and APC alone served as negative controls. TCC with a ratio of IFN-γ/IL-4>10 were classified as Th1, 0.1-10 as Th0 and <0.1 as Th2. […] Proliferation and cytokine responses were determined.

B1: rAmb a 1.3: E. coli-produced full-length recombinant Amb a 1.3 isoform (R2 clone) (protein)
chain: AEGVGEILPSVNETRSLQACEALNIIDKCWRGKADWENNRQALADCAQGFAKGTYGGKWGDVYTVTSNLDDDVANPKEGTLRFAAAQNRPLWIIFKNDMVINLNQELVVNSDKTIDGRGVKVEIINGGLTLMNVKNIIIHNINIHDVKVLPGGMIKSNDGPPILRQASDGDTINVAGSSQIWIDHCSLSKSFDGLVDVTLGSTHVTISNCKFTQQSKAILLGADDTHVQDKGMLATVAFNMFTDNVDQRMPRCRFGFFQVVNNNYDRWGTYAIGGSSAPTILCQGNRFLAPDDQIKKNVLARTGTGAAESMAWNWRSDKDLLENGAIFVTSGSDPVLTPVQSAGMIPAEPGEAAIKLTSSAGVFSCHPGAPC
modifications: left off: things letters cannot carry
[1]
  T cell proliferation compared with natural Amb a 1: comparable T cell proliferations
[2]
  reaction with patients IgE after reduction and heat treatment: reacted with patients IgE
[3]
  IgE reactivity in non-denaturing assays (dot blot, ELISA): not able to bind human IgE; also recorded: very weak or no IgE reactivity
[4]
  cytokine production compared with ragweed extract (FIG. 5) or natural Amb a 1 (FIG. 6): comparable cytokine production
